In PMC9303464:

How the values were obtained:
[1] = target: NepR2 (Sphingopyxis granuli TFA); assay: SPR
[2] = target: NepR1 (Sphingopyxis granuli TFA); assay: SPR

EcfG1 (natural protein) was tested. Which Kd [1] did it give?
The Kd was 38.8 nM.

What does the source list for EcfG2 (natural protein)?
Kd [1]: 23.5 nM; Kd [2]: 14.2 nM
